Target: T1, recombinant human MASP-2 (consisting of the two complement control regions and the serine protease domain) (human, UniProt O00187 298-686)
T1 construct: domain: the two complement control regions and the serine protease domains; also called rMASP-2; MBL associated serine protease-2
Test: size-exclusion chromatography (Superose-6) of 125I-labelled rLPI incubated with rMASP-2

T1 sequence (O00187 298-686 limits assumed): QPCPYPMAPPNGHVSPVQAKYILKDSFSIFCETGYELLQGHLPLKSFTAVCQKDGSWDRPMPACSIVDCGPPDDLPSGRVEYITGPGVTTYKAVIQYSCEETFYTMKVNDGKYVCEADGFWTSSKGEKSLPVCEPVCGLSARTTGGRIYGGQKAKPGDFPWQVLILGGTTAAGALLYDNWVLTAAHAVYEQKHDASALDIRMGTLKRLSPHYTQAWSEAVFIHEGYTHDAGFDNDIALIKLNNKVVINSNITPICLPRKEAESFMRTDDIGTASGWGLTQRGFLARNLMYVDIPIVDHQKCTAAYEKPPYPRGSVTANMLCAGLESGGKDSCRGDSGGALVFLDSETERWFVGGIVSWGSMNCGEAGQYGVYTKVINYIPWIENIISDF

B1: recombinant LPI (Lectin Pathway Inhibitor) of Staphylococcus aureus (other)
chain: STSLPTSNEYQNEKLANELKSLLDELNVNELATGSLNTYYKRTIKISGQKAMYALKSKDFKKMSEAKYQLQKIYNEIDEALKSKY
notes: also called rLPI; 125I-LPI
B1: binds.

— patent US20090202437A1 (UMC UTRECHT HOLDING B V, published 2009)
